# In patent US20240034792A1:
# Molecular target: Human PD-1 expressed on CHO-K1 cells (CHO-K1/hPD-1) (human) (UniProt Q15116)
# Assay: FACS, CHO-K1/hPD-1 cells
# Chain of Human PD-1 expressed on CHO-K1 cells (CHO-K1/hPD-1) (human) (Q15116 25-288): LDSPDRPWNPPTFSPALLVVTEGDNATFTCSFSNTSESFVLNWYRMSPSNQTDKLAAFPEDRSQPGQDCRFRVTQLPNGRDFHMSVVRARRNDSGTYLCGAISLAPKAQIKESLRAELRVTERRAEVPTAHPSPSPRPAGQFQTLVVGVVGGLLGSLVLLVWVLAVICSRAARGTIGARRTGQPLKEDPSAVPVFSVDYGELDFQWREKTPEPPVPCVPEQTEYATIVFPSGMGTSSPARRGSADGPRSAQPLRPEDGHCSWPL
substance,measurement,value
hIgG1 (antibody),Maximum (MFI),49300
